Experiments:
[1] = system: CMV Ad169; assay: CMV plaque assay in RPE cells (Example 5); assay type: cell-based, Cytomegalovirus; conditions: virus pre-incubated with 1 mg/ml for 120 min, MOI 0.01, 3 days
Description: Viral plaque assay. Confluent layers of RPE cells in glass bottom dishes were infected with CMV Ad169 strain in the presence and absence of CN at 0.01 PFU per cell for 2 hrs. This was followed by extensive but gentle washing three times with DMEM media followed by feeding cells with DMEM media. The cells were then incubated at 37° C. for thee days. Cells were then fixed using fixative buffer after 3 days for 30-45 min. The cells were washed three times with 1X PBS before RPE cells stained for Giemsa satin for additional 45 minutes. This was followed by 10 times washing with 1 X PBS to remove excess stain. The number of plaques formed were then visualized and quantified as indicated. In another protocol, confluent layers of HeLa cells (approximately 10^6) in six-well dishes were infected with HSV-1 (804) strain at 0.01 PFU/celI in presence and absence of CN for 2 h at 37° C. After removal of inoculum, monolayers were overlaid with DMEM comaining 2.5% heat-inactivated calf serum and incubated at 37° C. At 24 h, the cells were fixed by using fixative buffer (2% formaldehyde and 0.2% glutaradehyde) at room temperature for 20 min, followed by Giemsa staining for 45 min. The cells were again washed 5× in PBS and the numbers of plaques were counted. The images were taken by using Nikon D-Eclipse-C1 microscope (Nikon Instruments Inc., Melville, N.Y., USA).
A wild type strain of CMV Ad169 was used. The virus was again either pre-incubated with 1×PBS (control) or with CN at 1 mg/ml for 120 min at room temperature. After 120 min of incubation the two pools of viruses were incubated on target retinal pigment epithelial (RPE) cells at MOI (multiplicity of infection; MOI) of 0.01 for additional 2 hrs at 37° C. This was followed by washing to remove unbound viruses and feeding cells with fresh DMEM media. The plates were kept for 3 days before the plaque formation was visually observed (upper panels) and quantified (lower panel) after fixing cells with buffer (FIG. 9). […] Based on visual evidence, the plaque formation was quantified in each group and was scored (lower panel).

[2] = system: HSV-1 (804) strain; assay: HSV-1 plaque assay in HeLa cells (Example 11); assay type: cell-based, herpes simplex virus type-1; conditions: 10 μM, 0.01 PFU/cell, 24 h post-infection
Description: (A) In this experiment nectin-1 Chinese hamster ovary (CHO) Ig8 cells that express β-galactosidase upon viral entry were pre-treated with 10 μM contortrostatin (CN; indicated as treated [Tr]) or mock treated (indicated as untreated [Un]) with phosphate saline buffer for 90 min at room temperature followed by infection using clinical isolates of herpes simplex virus type-1 (HSV-1; F,G, and MP at 25 pfu/cell) for 6 h. The viral entry blocking was measured by o-nitro-phenyl-β-o-galactopyranoside (ONPG) assay as previously described. Error bars represent SD. (B) Confluent monolayers of HeLa cells were infected with HSV-1 (804) strain at 0.01 PFU/cell in presence (panel i) and absence (panel ii) of CN for 2 h at 37° C. Viral replication in HeLa cells were visualized 24 h post-infection for plaques. a=significant differences from corresponding mock-treated controls (P<0.05, t-test).
Viral plaque assay. Confluent layers of RPE cells in glass bottom dishes were infected with CMV Ad169 strain in the presence and absence of CN at 0.01 PFU per cell for 2 hrs. This was followed by extensive but gentle washing three times with DMEM media followed by feeding cells with DMEM media. The cells were then incubated at 37° C. for thee days. […] The number of plaques formed were then visualized and quantified as indicated. […] The cells were again washed 5× in PBS and the numbers of plaques were counted. […]

[3] = system: β-galactosidase-expressing recombinant Adenovirus; assay: Adenovirus infection of HeLa cells (Example 7); assay type: cell-based; conditions: pre-incubated 90 min
Description: HeLa cells were infected with a β-galactosidase-expressing recombinant Adenovirus were pre-incubated with CN at (1) the dilution indicated in FIG. 11, panel A (stock concentration 22 nM) or (2) the concentrations indicated in FIG. 11, panel B, or mock treated with 1 X phosphate saline buffer for 90 min at room temperature. After 12 hr, the cells were washed, permeabilized and incubated with ONPG substrate (3.0 mg/ml) for quantitation of β-galactosidase activity expressed from the input viral genome. Positive (Pos) infected with virus alone; Negative (Neg) uninfected control. The enzymatic activity was measured at an optical density of 410 nm (OD 410).

B1: contortrostatin (protein)
chain: DAPANPCCDAATCKLTTGSQCADGLCCDQCKFMKEGTVCRRARGDDLDDYCNGISAGCPRNPFHA
- CMV cytopathic effect (CPE) [1]: significantly lower cytopathic effect
- CMV plaque formation [1]: significantly reduced the plaque formation
- size of CMV plaques [1]: small compared to untreated CMV virions
- HSV-1 plaque formation [2]: blocked the plaque formation
- Adenovirus infection of HeLa cells (β-galactosidase activity, OD 410) ([3]; 12 hr): blocks infection
- IC50 ([3]; β-galactosidase read after 12 hr): 2.75 nM

From US20130177528A1, “COMPOSITIONS AND METHODS FOR INHIBITING VIRAL INFECTION” (WESTERN UNIVERSITY OF HEALTH SCIENCES, priority 2011, published 2013)
